Results reported in publication PMC7645262.

Target: Bpa78-βarr1 with a 2xStrep tag at the C-terminus (bovine) (UniProt P17870)
Test: cross-linking; Bpa78-βarr1-2xStrep in HEK293T cells irradiated with UV (365 nm) as intact cells, then isolated with Strep-Tactin XT (1 M NaCl, 1 M urea in the supernatant); product analysed by SDS-PAGE/blot, SEC (Superdex 200 Increase, 4°C, Buffer W), MALDI-TOF-MS and nano-HPLC/nano-ESI-Orbitrap-MS/MS

“Bpa78-βarr1 with a 2xStrep tag at the C-terminus (from UniProt P17870 1-418) (natural protein)” was tested, and the stoichiometry N was 2.
